Test results published in paper PMC11339918, “Extracellular Domain of IL-10 Receptor Chain-2 (IL-10R2) and Its Arginine-Containing Peptides Are Susceptible Substrates for Human Prostate Kallikrein-2 (KLK2)” (Biochemistry, 2024).
“Also recorded” adds a separate entry of the source. Non-standard residues stand in square brackets, D forms with d. No end group written: not given here. *: point of attachment. EDDnp = O=[N+]([O-])c1ccc(NCCN*)c([N+](=O)[O-])c1; 2Abz = Nc1ccccc1C(=O)O

The substances below were run against T1, Recombinant KLK2 (Homo sapiens, UniProt P20151) (assay: Hydrolysis of FRET peptides by recombinant KLK2 (kinetic parameters)). Conditions: 20 mM Tris–HCl, pH 8.0, 1 M sodium citrate.
T1 construct: made in house; host or cells: baculovirus-insect cell line system
Type: biochemical
Text: Obtained from a baculovirus-insect cell line system, purified, and activated as previously reported,[14] MUGB (4-methylumbelliferyl p-guanidino benzoate hydrochloride) was used for the spectrofluorimetric determination of molar concentrations of active KLK2.[15] KLK3 was obtained and assayed as previously reported.[3]
All of the FRET peptides were obtained by solid-phase peptide synthesis. The purity of FRET peptides to 95% or higher was obtained by semipreparative HPLC on a C18 reversed-phase column and used as protease substrates, as previously reported.[5] Details about the purification and quality of the FRET peptides are provided in the Supporting Information. The enzymatic kinetic measurements were all performed with FRET peptides as previously described.[5]
Five series of FRET peptides derived from Abz-KLRSSK-Q-EDDnp were assayed with KLK2 in 20 mM Tris–HCl, pH 8.0, and 1 M sodium citrate. […] The specificity of subsites S3, S2, S1’, and S2’ was explored by the FRET peptide series Abz-XLRSSKQ-EDDnp (for S3), Abz-KXRSSKQ-EDDnp (for S2), Abz-KLRXSKQ-EDDnp (for S1’), and Abz-KLRSXKQ-EDDnp (for S2’). All of them were hydrolyzed only at R–S or R–X peptide bonds, and the kinetic parameters for their hydrolysis by KLK2 are listed in Table 1.

T1 sequence (P20151 25-261): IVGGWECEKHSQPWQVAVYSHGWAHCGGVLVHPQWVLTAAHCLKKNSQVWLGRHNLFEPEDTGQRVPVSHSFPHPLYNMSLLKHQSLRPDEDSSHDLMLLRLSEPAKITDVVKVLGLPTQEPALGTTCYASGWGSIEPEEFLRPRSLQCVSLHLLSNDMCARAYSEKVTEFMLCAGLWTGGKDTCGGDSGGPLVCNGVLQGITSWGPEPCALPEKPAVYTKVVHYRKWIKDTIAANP

Substance | kcat/Km [mM^–1 s^–1]
Abz-KLRSSKQ-EDDnp [parent FRET peptide, cleaved at the R–S peptide bond by KLK2] | 1738

Same assay, conditions: FRET peptides derived from the IL-10R2 ectodomain

Substance | hydrolysis by KLK2 (in words)
Abz-LPDRNK-Q-EDDnp [FRET peptide derived from the IL-10R2 ectodomain, ^195LPDRN^200K] | resistant to KLK2; also recorded: no hydrolysis
Abz-LSKYGD-Q-EDDnp [FRET peptide derived from the IL-10R2 ectodomain, ^79LSKYG^84D] | resistant to hydrolysis; also recorded: no hydrolysis

Same assay, conditions: Table 3, FRET peptides derived from the IL-10R2 ectodomain

Substance | Km [µM] | kcat [s^–1] | kcat/Km [mM s–1]
Abz-SYRIFQ-Q-EDDnp [FRET peptide derived from the IL-10R2 ectodomain, ^58SYRI^62F] | 0.95 | 7.3 | 7684
Abz-TLRVRAE-Q-EDDnp [FRET peptide derived from the IL-10R2 ectodomain, ^86TLRVRA^92E] | 1.34 | 2.47 | 1843

Same assay, conditions: pH 8.0, 20 mM Tris–HCl, 1 M sodium citrate, 37 °C, KLK2 1.6 nM; three enzymatic reactions, standard errors 5% or less

Substance | Km [µM] | kcat [s^–1] | kcat/Km [s^–1 mM^–1]
Abz-KLRSSKQ-EDDnp [parent FRET peptide, cleaved at the R–S peptide bond by KLK2] | 6.5 | 11.3 | 1738
Abz-KLRSXKQ-EDDnp, X = A: FRET peptide, S2’ series, X = A ([2Abz]KLRSAKQ-EDDnp) | 3.8 | 12.2 | 3211
Abz-KLRSXKQ-EDDnp, X = E: FRET peptide, S2’ series, X = E ([2Abz]KLRSEKQ-EDDnp) | 8 | 7.1 | 888
Abz-KLRSXKQ-EDDnp, X = F: FRET peptide, S2’ series, X = F ([2Abz]KLRSFKQ-EDDnp) | 2.4 | 12.4 | 5167
Abz-KLRSXKQ-EDDnp, X = G: FRET peptide, S2’ series, X = G ([2Abz]KLRSGKQ-EDDnp) | 4.5 | 3.5 | 778
Abz-KLRSXKQ-EDDnp, X = H: FRET peptide, S2’ series, X = H (N-terminal Abz, C-terminal EDDnp; X = H) | 5.9 | 4.4 | –
Abz-KLRSXKQ-EDDnp, X = I: FRET peptide, S2’ series, X = I ([2Abz]KLRSIKQ-EDDnp) | 2.8 | 4.4 | 1571
Abz-KLRSXKQ-EDDnp, X = L: FRET peptide, S2’ series, X = L ([2Abz]KLRSLKQ-EDDnp) | 2.8 | 8.5 | 3036
Abz-KLRSXKQ-EDDnp, X = N: FRET peptide, S2’ series, X = N ([2Abz]KLRSNKQ-EDDnp) | 8.8 | 4.9 | 557
Abz-KLRSXKQ-EDDnp, X = Q: FRET peptide, S2’ series, X = Q ([2Abz]KLRSQKQ-EDDnp) | 5.2 | 6.5 | 1250
Abz-KLRSXKQ-EDDnp, X = R: FRET peptide, S2’ series, X = R ([2Abz]KLRSRKQ-EDDnp) | 3.6 | 3.2 | 888
Abz-KLRSXKQ-EDDnp, X = V: FRET peptide, S2’ series, X = V ([2Abz]KLRSVKQ-EDDnp) | 4.2 | 15.3 | 3643
Abz-KLRXSKQ-EDDnp, X = E: FRET peptide, S1’ series, X = E ([2Abz]KLRESKQ-EDDnp) | 6.6 | 10.3 | 1561
Abz-KLRXSKQ-EDDnp, X = F: FRET peptide, S1’ series, X = F ([2Abz]KLRFSKQ-EDDnp) | 1.2 | 3.5 | 2917
Abz-KLRXSKQ-EDDnp, X = G: FRET peptide, S1’ series, X = G ([2Abz]KLRGSKQ-EDDnp) | 7.3 | 19.9 | –
Abz-KLRXSKQ-EDDnp, X = H: FRET peptide, S1’ series, X = H (N-terminal Abz, C-terminal EDDnp; X = H) | 4.3 | 8.0 | 1860
Abz-KLRXSKQ-EDDnp, X = I: FRET peptide, S1’ series, X = I ([2Abz]KLRISKQ-EDDnp) | 1.8 | 7.2 | 4000
